# Data reported in patent publication US20180335433A1, “COMPOSITIONS TARGETING PKC-THETA AND USES AND METHODS OF TREATING PKC-THETA PATHOLOGIES, ADVERSE IMMUNE RESPONSES AND DISEASES” (La Jolla Institute for Allergy and Immunology, priority 2011, published 2018).
# B1: V3 domain: amino acid 282-379 of human PKCθ with N-terminal Myc tag, expressed from pMIG retroviral vector (protein)
# chain: GINQKLMAEALAMIESTQQARCLRDTEQIFREGPVEIGLPCSIKNEARPPCLPTPGKREPQGISWESPLDEVDKMCHLPEPELNKERPSLQIKLKIED
# modifications: left off: small tags and cut ends
# notes: amino acid 282-379 of human PKCθ with N-terminal Myc tag, expressed from pMIG retroviral vector
# Key:
# CD28 = target: T1, CD28 (Mus musculus, UniProt P31041); assay: Co-immunoprecipitation of Myc-tagged V3 with CD28 in PKCθ−/− primary CD4+ T cells; format: binding; conditions: Myc-tagged V3 alone, retrovirus, CD3+CD28 mAbs 5 min
# T1 construct: PKCθ^−/− primary CD4^+ T cells were infected with a retrovirus expressing a Myc-tagged V3 alone; endogenous in cells; host or cells: primary CD4+ T cells of PKCθ-/- mice, retrovirally transduced only with Myc-tagged V3
# T1 sequence (P31041 20-218): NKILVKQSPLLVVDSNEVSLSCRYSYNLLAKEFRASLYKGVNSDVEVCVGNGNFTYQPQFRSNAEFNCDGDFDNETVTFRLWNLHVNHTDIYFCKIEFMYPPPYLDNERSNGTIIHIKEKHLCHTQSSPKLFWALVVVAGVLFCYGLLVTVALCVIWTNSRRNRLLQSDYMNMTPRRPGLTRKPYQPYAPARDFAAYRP
# T1 sequence (P06240 2-509 partner): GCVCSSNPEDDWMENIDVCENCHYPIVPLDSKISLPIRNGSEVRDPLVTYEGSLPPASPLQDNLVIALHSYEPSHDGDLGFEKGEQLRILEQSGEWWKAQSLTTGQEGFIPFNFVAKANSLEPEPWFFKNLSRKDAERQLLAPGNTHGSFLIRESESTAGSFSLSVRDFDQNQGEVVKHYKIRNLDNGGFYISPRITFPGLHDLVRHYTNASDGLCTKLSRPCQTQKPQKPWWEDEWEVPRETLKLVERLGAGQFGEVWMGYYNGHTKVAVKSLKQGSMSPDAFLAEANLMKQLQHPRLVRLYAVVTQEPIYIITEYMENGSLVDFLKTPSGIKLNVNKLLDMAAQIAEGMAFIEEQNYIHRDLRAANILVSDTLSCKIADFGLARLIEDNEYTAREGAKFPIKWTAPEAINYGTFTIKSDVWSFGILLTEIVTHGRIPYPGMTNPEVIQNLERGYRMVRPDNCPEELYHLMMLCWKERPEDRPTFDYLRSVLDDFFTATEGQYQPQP
# Procedure: (FIG. 2A) Schematic representation of PKCθ mutants. (FIG. 2B) Jurkat E6.1 cells transfected with the indicated PKCθ or PKCδ vectors were stimulated with anti-CD3/CD28 mAbs for 5 min. (FIG. 2C-2E) PKC CD4^+ T cells were infected with retrovirus expressing empty pMIG vector, WT PKCθ, or PKCθ−ΔV3 (FIG. 2C); WT PKCθ, PKCθ/δV3, or WT PKCδ (FIG. 2D); empty pMIG-vector or Myc-tagged V3 of PKCθ (FIG. 2E). Cells were harvested and restimulated with CD3+CD28 mAbs for 5 min. Cell lysates were prepared, immunoprecipitated with anti-CD28 mAb, resolved by SDS-PAGE, and immunoblotted with the indicated Abs. (FIG. 2F) Jurkat T cells cotransfected with Myc-tagged PKCθ−V3 plus CFP-tagged CD28 were mixed with SEE-pulsed Raji B cells at a 1:1 ratio. Conjugates were fixed and stained with a rabbit anti-Myc Ab plus a secondary Alexa 488-coupled antibody. Data shown is from four studies.
# Retrovirally transduced CD4^+ T cells were stimulated with anti-CD3 and anti-CD28 mAbs for 5 min. Cell lysis in 1% digitonin lysis buffer, immunoprecipitation and Western blotting were carried out as described (Yokosuka, T. et al. Immunity 29, 589-601 (2008)).
# To determine whether the V3 domain is sufficient for this interaction, PKCθ^−/− primary CD4^+ T cells were infected with a retrovirus expressing a Myc-tagged V3 alone. […]
# [1] = tested on: B6 CD4+ T cells, Th2 differentiation; assay: In vitro Th2 differentiation of retrovirally transduced CD4+ T cells; format: cell-based, mouse; conditions: ectopic expression, Th2 differentiation conditions
# Procedure: (FIG. 6A) OT-II CD4^+ T cells were infected with retrovirus expressing Myc-tagged V3 domain, V3 mutated at P330/1/4/6A (V3-4PA), or PR motif-deleted V3 (V3-ΔPR). Infected cells (green) were harvested, stimulated, and fixed. Conjugates were stained with anti-Myc plus a secondary Alexa 555-coupled antibody (orange), and anti-PKCθ plus a secondary Alexa 647-coupled antibody (red). Cells were analyzed as in FIG. 1A. (FIG. 6B) Quantitative analysis of the results shown in (FIG. 6A) from 30-50 T-APC conjugates. ** p<0.05. (FIG. 6C) MCC-specific T hybridoma cells were cotransfected with indicated vector, together with RE/AP-Luc and β-Gal reporter plasmids. Cells were stimulated and analyzed as in FIG. 1C. […] Cytokine-producing cells were analyzed by intracellular staining 8 h after restimulation. […] Normalized luciferase activity was determined in triplicates. […]
# Investigators have reported that the Th2 and Th17 immune responses are compromised in PKCθ^−/− mice, whereas the Th1 response remains relatively intact (Marsland, B. J. et al. J Exp Med 200, 181-189 (2004); Salek-Ardakani, S. et al. J Immunol 173, 6440-6447 (2004); Salek-Ardakani, S., et al. J Immunol 175, 7635-7641 (2005)). Therefore, ectopic expression of V3 was analyzed for inhibition of Th differentiation. […]
# [2] = tested on: Naïve CD4+ T cells from B6 mice, Th9 cells; assay: In vitro Th9 differentiation of retrovirally transduced CD4+ T cells; format: cell-based, mouse; conditions: Th9-polarizing conditions (IL-4+TGFβ), IL-9-producing cells
# Procedure: Naïve CD4^+ T cells from B6 mice stimulated with anti-CD3 plus anti-CD28 mAbs and differentiated in vitro under Th9-polarizing conditions (IL-4+TGFβ) were retrovirally transduced with empty pMIG vector, or with the indicated PKCθ V3 vectors. Transduced (GFP+) cells were sorted and IL-9-producing cells were analyzed by intracellular staining 8 h after restimulation. Cumulative data showing percentage of cytokine-producing. V3-4PA refers to mutation of 4 Pro residues in the Pro-rich motif to Ala and V3-DPR refers to deletion of the Pro-rich motif (ARPPCLPTP).
# Th9 cells have been reported to play an important role in promoting allergic diseases such as asthma (J. Asthma 48:115, 2011; Curr. Opin. Immunol. 24:1, 2012. These findings indicate that allergic disease such as asthma can be treated in accordance with the invention.
molecule,measurement,setting,value
B1,coimmunoprecipitation with CD28,CD28,coimmunoprecipitated with CD28
same,inhibition of Th2 differentiation,[1],~75%
same,effect on differentiation of Th9 cells,[2],interferes
